According to the nanobody polyreactivity screen of Harvey et al. (2022):

Assay: yeast display, Sf9 membrane polyspecificity reagent, FACS + sequencing; frameworks hold sequencing errors
Outline: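 Sorting gates, low and high (top ~1%), were placed on anti-HA fluorescence to track expression and on streptavidin fluorescence to track reagent binding. A clone's polyreactivity label is taken from the gate it came out of. The reagent was 10% biotinylated, detergent-solubilized Sf9 membrane, applied for 1 hour at 4 °C to galactose-induced yeast display cells.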

Sequence	polyreactivity (PSR sort gate)
QVQLVESGGGIVQAGGSLRLSCAASGLNFGLYAMGWDRQAPGNERELVAAITWSGVSTSYADSVKGRFTISRDNAKNTVYLQMNSLKPEDTAVYYCNKDPGTLYGDMDSWGQGTQVTVSS	low polyreactivity
QVQLVESGGGIVQAGGSLRLSCAASGLSRGVNVMGLYRQAPGKERELVAAISGAGRTYYADSVKGRFTISRDNAKNTVFLQMNSLKPEDTAVYYCASVRRRLSLTYDYWGQGTQVTVSS	high polyreactivity
QVQLVESGGGIVQAGGSLRLSCAASGNIFPYYAMRWYRQERGKERELVASISRSGGSTYYADSVKGRFTISRDNAKNTVYLEMNSLKPEDTAVYYCNTLSRSWQMDYWGLGTQVTVSS	low polyreactivity
QVQLVESGGGIVQAGGSLRLSCAASGNIFSYYAMGWYRQAPGKERELVAAITYRSDSTYYADSVKGRFTISRDNAKNTVYLQMNSLKPEDTAVYYCATEPWYGWGFGYWGQGTQVTVSS	low polyreactivity
QVQLVESGGGIVQAGGSLRLSCAASGNTFHYYVMGWYRQAPGKERELVAAITYTGGSTYYADSVKGRFTISRDNAKNTVYLQMISLKPEDTAVYYCAAGFSPASQLDYWGQGTQVTVSS	low polyreactivity
QVQLVESGGGIVQAGGSLRLSCAASGRHFYTNAMGWYRQAPGKERELVATISGSVGNTYYEDSVKGRFTISRDNAKNTVYLQMNSLKPEDTAVYYCAKAYYTPYGVYVLHYYWGQGTQVTVSS	high polyreactivity
QVQLVESGGGIVQAGGSLRLSCAASGRIFKWNAMGWYRQAPGKERELVAAISTSRGNTYYADSVKGRFTSSRDYAKNTVYLLMNSLKPEDTAGYYCAATYPISLRQVGYWGQATQVTVSS	high polyreactivity
QVQLVESGGGIVQAGGSLRLSCAASGRIFLSYAMGWYRQAPGKERELVAAISRNGGSTYYADSVKGRFTISRDNGKNTVYLPMNSLKPEDTAVYYCAAGGDYWGQGTQVTVSS	high polyreactivity
QVQLVESGGGIVQAGGSLRLSCAASGRIFSFNTMVSYRQAPRKERELVAAITSSSARTYYADSVKGRFTISRDNAKNTVYLQMNSLKPEDTAVYYCATRDWVGSVRMGYWGQGTQVTVSS	high polyreactivity
QVQLVESGGGIVQAGGSLRLSCAASGRIFSGNGMGWYRQAPGKEREFVAAIRFSSGSTYYADSVKGRFTISRDNAKNTVYLQMNSLKPEDTAVYYCARPSIPSRYDYWGQGTQVTVSS	high polyreactivity
QVQLVESGGGIVQAGGSLRLSCAASGRIFVRYAMGWYRQAPGKERELVAAISKSGGSTYYADSVKGRFTISRENAKNTVYLQMYSLKPEDTAVYYCNALVRRRPGYIRYDYWGQGTQVTVSS	low polyreactivity
QVQLVESGGGIVQAGGSLRLSCAASGRIFYRYDMGWYSQARGKERELVAAINDGGSTYYADSVKGRFTISRDNAKNTVYLQMNSLKPEDTAVYYCKVVNEHQSDFVVPFDYNHWGQGTQVTVSS	low polyreactivity
QVQLVESGGGIVQAGGSLRLSCAASGRIFYSYAMGWYRQAPGKERELVATISSGGSTNYADSVKGRFTISRDNAKNTVYLQMNSLKPEDTAVYYCGRQSLRYSYVSRDYWGQGSQVTVSS	low polyreactivity
QVQLVESGGGIVQAGGSLRLSCAASGRIIRYYAMGWYRQAPGKERELVAAITRGGSTNYADSVKGRFTISRDNAKNTVYLLMNSLKPEDTAVYYCATRQSWYPRWMDYWGQGTQVTVSS	high polyreactivity
QVQLVESGGGIVQAGGSLRLSCAASGRIIVNYAMGWYRQAPGKERELVAAISYSGGGTYYADSVKGRFTISRDNAKNTVYLHMNSLKPEDTAVYYCATVRRDDRYNYWGQGNQVTVSS	low polyreactivity
QVQLVESGGGIVQAGGSLRLSCAASGRTFAGNAMGWYRQAPGKERELVAAISQGGGSTYYADSVKGRFTISRDNAKNTVYLQMNSLKPEDTAVYYCAAEIPRRWASFATLWYDYWGQGTQVTVSS	low polyreactivity
QVQLVESGGGIVQAGGSLRLSCAASGRTFKRYAMGWYRPAPGKERELVAAITRSGGSTYYADSVKGRFTISRDNAKNTVYLQMNSLKPEDTAVYYCATRSYNNELEYWGQGTQVTVSS	high polyreactivity
QVQLVESGGGIVQAGGSLRLSCAASGRTFKYYAMGWYRQAPGKERELVAAITSTGGSTYYADSVKGRFTISRDNAKNTVYLQMNSLKPEDTAVYYCNRYTQYRDRSDNHWGQGTQVTVSS	high polyreactivity
QVQLVESGGGIVQAGGSLRLSCAASGRTFQFYAMGWYRQEPGKERELVASITWSPVRTYYADSVKGRFTNSRDNAKNTVYLQMNSLKQEDTAVYSCAIDWDYRLMDYWGQGTQVTVSS	low polyreactivity
QVQLVESGGGIVQAGGSLRLSCAASGRTFRGNAMGWYRQAPGKERELVAAIRYRGGSTYYADSVKGRFTISRDNAKNTVYLQMNSLKPEDTAVYDCARRYTVHTQHYDYWGQGTEVTVSS	high polyreactivity
QVQLVESGGGIVQAGGSLRLSCAASGRTFRWNVMGCYRPAPGKERELVATISRRSGSTNYADSVKGRFTISRDNAKNTVYLQINSLKPEDTALYYCAVVIVRALVYSGDYWGQGTQVSVSS	low polyreactivity
QVQLVESGGGIVQAGGSLRLSCAASGRTLPEYAMGWYIQEPGKERELVAAITSSSGSTYYADSVKVRFTISRDNAKNTVYLQMNSLIPEDTAVYYCAAESESGYHDYDYWGQGTQVTVSS	low polyreactivity

Sequence	polyreactivity (PSR sort gate)
QVQLVESGGGIVQAGGSLRLSCAASGRTYYYYAMGWYRQAPGKETELVASISWSGGSTYYADSVKGRFTISRDNAKNTVYLQMNSLKPEDTAVYYCNAQYHTYRWLYAVYLSGDYWGQGTQVTVSS	low polyreactivity
QVQLVESGGGIVQAGGSLRLSCAASGRVFTYYAMGWYRQAPGKERELVAAISSGGNTYYADSVKGRFTISRDNAKNTVFLQMNSLKPEDTAVYYCAAAGRPRYESNYWGQGTQVSVSS	high polyreactivity
QVQLVESGGGIVQAGGSLRLSCAASGSIFEPNAMGWYRQAPGQEREFVAAISGSGGSTYYADSVKGRFTSSRDNAKNTVYLQRNSLKPEDTAVYYCNALYLRTTPQDYDYWGQGTQVTVSS	high polyreactivity
QVQLVESGGGIVQAGGSLRLSCAASGSIFGANAMVWYRQAPGKERELVAAISRRGGSTYYADSVKGRFTISRDNAKNTVYLQMNSLKPEDSAVYYCNTYPQSLGVKYGYWGQGTQVTVSS	high polyreactivity
QVQLVESGGGIVQAGGSLRLSCAASGSIFGVYAMGWYRQAPGKERELVAAISSSGGRTYYADSVKGRFTISRDNAKNTVYLQMISLKPEDTAVYYCAAVPWRRSTRYDYWGQGTLVTVSS	high polyreactivity
QVQLVESGGGIVQAGGSLRLSCAASGSIFSKYAMGWYRQAPGKERELVATISSSVGSTYYADSVKGRFTISRDNAKNTVYLQMNSLKPEDTAVYYCAARPDYEYGSHYRGGYWGQGTQVSVSS	low polyreactivity
QVQLVESGGGIVQAGGSLRLSCAASGSIFSYNAMVWSRQAPGKQREFVAAIDGSDGSTYYADSVKGRFTISRDNAKNTVYLQMYSLKPEDTAVYSCAATDYDTYRSSWYDYWGQGTQVTVSS	low polyreactivity
QVQLVESGGGIVQAGGSLRLSCAASGSIFTGYAMGWYRQAPGKERQLVAAISWRGGGTYYADSVKGRFTISRDNAKNTVYLQMNSLKPEDTAVYYCAAVTKFGQYAPGSKGYGYWGQGTQVTVSS	low polyreactivity
QVQLVESGGGIVQAGGSLRLSCAASGSIFWVNVMGWYRQAPGKEREFVAAITRSGGSTYYADSVKGRFTISRDNAKNTVYLQMKSLKPEDTAVYYCNRRGRRGYDYWGQGTQVTVSS	high polyreactivity
QVQLVESGGGIVQAGGSLRLSCAASGSIFYHNAMGWYRQAPGKERELVAAITGSGGSTYYADSVKGRFTISRDNAKNTVYLQMNSLKPEDTAVYYCAADGYTKWWISWGYDYWGQGTQVTVSS	low polyreactivity
QVQLVESGGGIVQAGGSLRLSCAASGSSFWRNTMGWYRQAPGKERELVAGISSTGTSTYYADSVKGRFTISRDNAKNTVYLQMNSLKPEDTAVYYCAAAYRNRKYDYWGQGTQVTVSS	high polyreactivity
QVQLVESGGGIVQAGGSLRLSCAASGSTFFSNTMGWYRQAPGKERELVAAITSRGGRTYYADSVKGRFTISRDNAKNTVYLQMNSLKPEDSAVYYCADRFVLHGVYLKFYWGQGTQVTVSS	high polyreactivity
QVQLVESGGGIVQAGGSLRLSCAASGSTFGAYPMAWYRQAPGTERELVAVITRTGSTYADSVKGRFTISRDNAKNTVYLQMNSLKPVDTAVYYCNADYYVSRLYDYQVYSYRYDYWGQGTKVTVSS	high polyreactivity
QVQLVESGGGIVQAGGSLRLSCAASGSTFGWYAMGWYRPAPGKERELVAAISTSGNTYYADSVKGRFTISRDNAKNTVYLQLNSLKPEDTAVYYCAKYVNPDHDYWGQGTQVTVSS	low polyreactivity
QVQLVESGGGIVQAGGSLRLSCAASGSTFSYNAMGWYRQAPGKERELVAAISRGGITNYADSVKGRFTISRDNAKNTVYLQMNSLKPEDTAVYYCNAGYLGGPSYEYWGQGTQVTVSS	low polyreactivity
QVQLVESGGGIVQAGGSLRLSCAASGSTFVGNAMGWSRQAPGKERELVAAISRTGGSTYYADSVKGRFTISRDNEKNTVYLQMNSLIPEDSAVYYCNAYTRYSSRRGIGDSWGQGTQVTVSS	high polyreactivity
QVQLVESGGGIVQAGGSLRLSCAASGSTFVIYTMGWYRPAPGKERELVAAISWSGGITRYADSVKGRFTISRDNAKNTVYLQMNSLKPEDSAVYYCNASQWPSRFDYWGQGTQVTVSS	low polyreactivity
QVQLVESGGGIVQAGGSLRLSCAASGSTFYSYAMGFYRQAPGKERELVAAISWDGGRTYYADSVKGRFTISRDNAKNTVYLQMNSLKPEDTAVYYCAAAYPTYRHYYWGQGTQVTVSS	low polyreactivity
QVQLVESGGGIVQAGGSLRLSCAASGSTIDHYTMGWYSQAPGKERELVAAINRIGDSTYYADSVKGRFTISRDNAKNTVYLQMYSVNPEDTAVYYCAARHVPRFKNYGYWGQGTQVTVSS	high polyreactivity
QVQLVESGGGIVQAGGSLRLSCAASGSTIGGYAMGWYRQAPGKERELVAAIRRSGDSTYYADSVKGRFTISRDNAKNTVYLQMNSLKPEDTAVYYCNTDRTHSYQYGGYDYWGQGTQVTVSS	low polyreactivity
QVQLVESGGGIVQAGGSLRLSCAASGSTIRYYAMGWYRQAPGKERELVAAITYSGTRTYYADSVKGRFTISRDNAKTTVYLQMNSLKPEDTAVYYCNAVAKHRGVGIYTPYDYWGQGTQVTVSS	high polyreactivity
